# From patent publication US20260116982A1
# Biological target: CD1a antigen on CD1a+ T-ALL cells (Jurkat, MOLT4, primary cortical T-ALL blasts) and cortical thymocytes (human) (UniProt P06126)
# Experiment: cell-based or functional assay
substance,measurement,value
"CD1a CAR (second-generation chimeric antigen receptor with the anti-CD1a scFv derived from clone NA1/34.HLK, CD8 TM spacer, 4-1BB (CD137) and CD3ζ signaling domains), expressed on T cells","specific cell lysis of CD1a+ T-ALL cell lines (Jurkat, MOLT4), 16 h assay, E:T 2:1 or 4:1",50 to 80%
